According to patent publication US20150315277A1 (published 2015):

Target: recombinant human DLL4 (hDLL4) (human, UniProt Q9NR61 27-524)
Experiment: Biacore

Chain of recombinant human DLL4 (hDLL4) (Q9NR61 27-524): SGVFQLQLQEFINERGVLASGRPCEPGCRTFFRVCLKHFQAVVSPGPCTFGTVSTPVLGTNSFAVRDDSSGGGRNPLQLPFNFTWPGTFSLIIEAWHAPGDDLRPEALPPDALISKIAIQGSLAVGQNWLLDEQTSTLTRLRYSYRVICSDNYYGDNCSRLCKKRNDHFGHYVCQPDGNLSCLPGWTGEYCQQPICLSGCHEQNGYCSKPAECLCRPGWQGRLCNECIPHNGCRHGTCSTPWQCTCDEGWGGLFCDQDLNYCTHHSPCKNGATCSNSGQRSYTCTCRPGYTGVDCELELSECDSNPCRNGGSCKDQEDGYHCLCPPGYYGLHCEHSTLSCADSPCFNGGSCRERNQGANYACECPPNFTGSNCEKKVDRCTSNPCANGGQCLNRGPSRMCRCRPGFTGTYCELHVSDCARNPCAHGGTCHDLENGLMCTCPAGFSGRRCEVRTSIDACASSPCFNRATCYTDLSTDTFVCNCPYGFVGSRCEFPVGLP

- Kd: 19.9 nM
B1: Notch-1 Fc (rhNotch1-Fc) (Fc fusion)
chain: ARGPRCSQPGETCLNGGKCEAANGTEACVCGGAFVGPRCQDPNPCLSTPCKNAGTCHVVDRRGVADYACSCALGFSGPLCLTPLDNACLTNPCRNGGTCDLLTLTEYKCRCPPGWSGKSCQQADPCASNPCANGGQCLPFEASYICHCPPSFHGPTCRQDVNECGQKPGLCRHGGTCHNEVGSYRCVCRATHTGPNCERPYVPCSPSPCQNGGTCRPTGDVTHECACLPGFTGQNCEENIDDCPGNNCKNGGACVDGVNTYNCRCPPEWTGQYCTEDVDECQLMPNACQNGGTCHNTHGGYNCVCVNGWTGEDCSENIDDCASAACFHGATCHDRVASFYCECPHGRTGLLCHLNDACISNPCNEGSNCDTNPVNGKAICTCPSGYTGPACSQDVDECSLGANPCEHAGKCINTLGSFECQCLQGYTGPRCEIDVNECVSNPCQNDATCLDQIGEFQCICMPGYEGVHCEVNTDECASSPCLHNGRCLDKINEFQCECPTGFTGHLCQ
